Consider two molecules from PMC12822440, “An Aptamer‐Based EXACT Anticoagulant as a Sustainable, Animal‐Free Alternative to Unfractionated Heparin”.

For one data set, the target named is prothrombin (UniProt P00734 44-622). Description: filter binding; dabigatran covalently attached to the aptamer; Nitrocellulose filter binding, 32P 5'-labelled aptamer (500 CPM/uL), selection buffer (composition not given), 5 min at room temperature, n = 2. Conditions: protein: commercial; label: 5'-32P.
Data set [1] deals with T1, thrombin (alpha-thrombin) (UniProt P00734;P00734 315-363;364-622). The data set is described as follows: filter binding; dabigatran covalently attached to the aptamer, occupies the active site; Nitrocellulose filter binding, 32P 5'-labelled aptamer (500 CPM/uL), selection buffer (composition not given), 5 min at room temperature, n = 2.
The target in data set [2] is T1, thrombin (alpha-thrombin). The data set is described as follows: filter binding; Nitrocellulose filter binding, 32P 5'-labelled aptamer (500 CPM/uL), selection buffer (composition not given), 5 min at room temperature, n = 2.

B1: HD1-12A-DAB (structured_DNA)
DNA: GGTTGGTGTGGTTGGAAAAAAAAAAAA
modifications: 3'-dabigatran conjugate (DAB) through 12-nt dA linker
What is called Kd is a measure of binding affinity in units of concentration. Lower therefore signals a tighter complex. As to B1, the Kd with prothrombin came out at 296 nM; in data set [1] it was 0.0131 nM.

B2: HD1 (structured_DNA)
DNA: GGTTGGTGTGGTTGG
Molecule B2 registered a Kd in data set [2] of 110 nM.
